± gives the standard deviation of the averaged measurements.
B1: library; a variant is named by its letters at N, in order (parent)
chain: GCUGUCACCGAGAAACUGUGAAGUAUAUCUUAAACCUGGGCACUUAAAAGAUAUAUGGAGUUAGUAGUGCAACCUGCUCGGUCUGAUGAGUCCNNNNNNGGACGAAACAGC

Legend:
[1] = variants of: B1; test: FACS-Seq fitted mean relative fluorescence mCherry/BFP without ligand (log10 relative fluorescence); HEK293T; ligand: cyclic di-GMP (c-di-GMP-II aptamer); higher = higher reporter protein expression; conditions: ligand present: no
In short: (§1)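 Fluorescence comes from a normal fit to bin counts, normalized against controls. HEK293T libraries lentivirally given a ribozyme-switch mCherry reporter and an EF1α-BFP marker were enriched, incubated 48 h with or without ligand, and sorted by mCherry/BFP into 6 bins. Bin genomic DNA was PCR-amplified, barcoded and sequenced on MiSeq. The log10(mCherry/BFP) mean was scaled to five spiked-in control ribozymes.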

[2] = variants of: B1; test: normalized RNA/DNA level without ligand (relative to sTRSVctl = 100) (log10 (% of sTRSVctl)); HEK293T; ligand: cyclic di-GMP (c-di-GMP-II aptamer); higher = less ribozyme self-cleavage, higher mRNA level; conditions: reporter: mCherry (pCS4076), ligand present: no
In short: (§2)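 For each 6-well well, 4 µg of library plasmid encoding mCherry-linked ribozyme switches, or eGFP-linked ones in some ligand experiments, was transfected into HEK293T. Any ligand was added 1 h before transfection, and RNA was extracted with EDTA 72 h after it, then reverse-transcribed, amplified, barcoded and sequenced. RNA level was obtained by dividing RNA reads by DNA reads, normalizing to a spiked-in non-cleaving sequence or to the top sequences, then scaling and log-transforming. The top set was 25 sequences, scaling was ×100 with log10, and ≥100 DNA reads were required.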

[3] = variants of: B1; test: FACS-Seq fitted mean relative fluorescence mCherry/BFP with ligand (log10 relative fluorescence); HEK293T; ligand: cyclic di-GMP (c-di-GMP-II aptamer); ligand concentration (+) FACS-Seq: 1 mM; higher = higher reporter protein expression; conditions: ligand present: yes
In short: as §1

[4] = variants of: B1; test: normalized RNA/DNA level with ligand (relative to sTRSVctl = 100) (log10 (% of sTRSVctl)); HEK293T; ligand: cyclic di-GMP (c-di-GMP-II aptamer); ligand concentration (+) RNA-Seq: 1 mM; higher = less ribozyme self-cleavage, higher mRNA level; conditions: reporter: mCherry (pCS4076), ligand present: yes
In short: as §2

GCUGUCACCGAGAAACUGUGAAGUAUAUCUUAAACCUGGGCACUUAAAAGAUAUAUGGAGUUAGUAGUGCAACCUGCUCGGUCUGAUGAGUCCACGCAGGGACGAAACAGC
FACS-Seq fitted mean (log10) [1]: -0.51 ± 0.13
normalized RNA/DNA level without ligand (log10) [2]: 1.677 ± 0.0051
FACS-Seq fitted mean (log10) [3]: -0.377 ± 0.0065
normalized RNA/DNA level with ligand (log10) [4]: 1.81 ± 0.094

GCUGUCACCGAGAAACUGUGAAGUAUAUCUUAAACCUGGGCACUUAAAAGAUAUAUGGAGUUAGUAGUGCAACCUGCUCGGUCUGAUGAGUCCACUGUAGGACGAAACAGC
FACS-Seq fitted mean (log10) [1]: -0.443 ± 0.033
normalized RNA/DNA level without ligand (log10) [2]: 1.51 ± 0.076
FACS-Seq fitted mean (log10) [3]: -0.138 ± 0.021
normalized RNA/DNA level with ligand (log10) [4]: 1.76 ± 0.094

GCUGUCACCGAGAAACUGUGAAGUAUAUCUUAAACCUGGGCACUUAAAAGAUAUAUGGAGUUAGUAGUGCAACCUGCUCGGUCUGAUGAGUCCACCCGCGGACGAAACAGC
FACS-Seq fitted mean (log10) [1]: -0.436 ± 0.15
normalized RNA/DNA level without ligand (log10) [2]: 1.75 ± 0.018
FACS-Seq fitted mean (log10) [3]: -0.0881 ± 0.013
normalized RNA/DNA level with ligand (log10) [4]: 1.85 ± 0.099

GCUGUCACCGAGAAACUGUGAAGUAUAUCUUAAACCUGGGCACUUAAAAGAUAUAUGGAGUUAGUAGUGCAACCUGCUCGGUCUGAUGAGUCCCGUAUAGGACGAAACAGC
FACS-Seq fitted mean (log10) [1]: -0.76 ± 0.11
normalized RNA/DNA level without ligand (log10) [2]: 1.3 ± 0.1
FACS-Seq fitted mean (log10) [3]: -0.4664 ± 0.0033
normalized RNA/DNA level with ligand (log10) [4]: 1.45 ± 0.13

GCUGUCACCGAGAAACUGUGAAGUAUAUCUUAAACCUGGGCACUUAAAAGAUAUAUGGAGUUAGUAGUGCAACCUGCUCGGUCUGAUGAGUCCUAUCACGGACGAAACAGC
FACS-Seq fitted mean (log10) [1]: 0.171 ± 0.13
normalized RNA/DNA level without ligand (log10) [2]: 1.75 ± 0.0055
FACS-Seq fitted mean (log10) [3]: 0.375 ± 0.051
normalized RNA/DNA level with ligand (log10) [4]: 1.87 ± 0.11

GCUGUCACCGAGAAACUGUGAAGUAUAUCUUAAACCUGGGCACUUAAAAGAUAUAUGGAGUUAGUAGUGCAACCUGCUCGGUCUGAUGAGUCCCGAGCGGGACGAAACAGC
FACS-Seq fitted mean (log10) [1]: -0.783 ± 0.013
normalized RNA/DNA level without ligand (log10) [2]: 1.81 ± 0.023
FACS-Seq fitted mean (log10) [3]: -0.5474 ± 0.004
normalized RNA/DNA level with ligand (log10) [4]: 1.9 ± 0.12

GCUGUCACCGAGAAACUGUGAAGUAUAUCUUAAACCUGGGCACUUAAAAGAUAUAUGGAGUUAGUAGUGCAACCUGCUCGGUCUGAUGAGUCCCUGAUGGGACGAAACAGC
FACS-Seq fitted mean (log10) [1]: -0.749 ± 0.029
normalized RNA/DNA level without ligand (log10) [2]: 1.39 ± 0.12
FACS-Seq fitted mean (log10) [3]: -0.5264 ± 0.0006
normalized RNA/DNA level with ligand (log10) [4]: 1.58 ± 0.081

GCUGUCACCGAGAAACUGUGAAGUAUAUCUUAAACCUGGGCACUUAAAAGAUAUAUGGAGUUAGUAGUGCAACCUGCUCGGUCUGAUGAGUCCCGGGUGGGACGAAACAGC
FACS-Seq fitted mean (log10) [1]: -0.608 ± 0.14
normalized RNA/DNA level without ligand (log10) [2]: 1.62 ± 0.026
FACS-Seq fitted mean (log10) [3]: -0.7531 ± 0.0033
normalized RNA/DNA level with ligand (log10) [4]: 1.82 ± 0.12

GCUGUCACCGAGAAACUGUGAAGUAUAUCUUAAACCUGGGCACUUAAAAGAUAUAUGGAGUUAGUAGUGCAACCUGCUCGGUCUGAUGAGUCCAGCGUCGGACGAAACAGC
FACS-Seq fitted mean (log10) [1]: -0.71 ± 0.022
normalized RNA/DNA level without ligand (log10) [2]: 1.78 ± 0.028
FACS-Seq fitted mean (log10) [3]: -0.542 ± 0.044
normalized RNA/DNA level with ligand (log10) [4]: 1.9 ± 0.15

GCUGUCACCGAGAAACUGUGAAGUAUAUCUUAAACCUGGGCACUUAAAAGAUAUAUGGAGUUAGUAGUGCAACCUGCUCGGUCUGAUGAGUCCAGGCAGGGACGAAACAGC
FACS-Seq fitted mean (log10) [1]: -0.6414 ± 0.0033
normalized RNA/DNA level without ligand (log10) [2]: 1.758 ± 0.0064
FACS-Seq fitted mean (log10) [3]: -0.399 ± 0.084
normalized RNA/DNA level with ligand (log10) [4]: 1.83 ± 0.097

GCUGUCACCGAGAAACUGUGAAGUAUAUCUUAAACCUGGGCACUUAAAAGAUAUAUGGAGUUAGUAGUGCAACCUGCUCGGUCUGAUGAGUCCAAAUGAGGACGAAACAGC
FACS-Seq fitted mean (log10) [1]: -0.5596 ± 0.00088
normalized RNA/DNA level without ligand (log10) [2]: 1.43 ± 0.061
FACS-Seq fitted mean (log10) [3]: -0.289 ± 0.037
normalized RNA/DNA level with ligand (log10) [4]: 1.62 ± 0.089

GCUGUCACCGAGAAACUGUGAAGUAUAUCUUAAACCUGGGCACUUAAAAGAUAUAUGGAGUUAGUAGUGCAACCUGCUCGGUCUGAUGAGUCCGUACGAGGACGAAACAGC
FACS-Seq fitted mean (log10) [1]: -0.395 ± 0.055
normalized RNA/DNA level without ligand (log10) [2]: 1.43 ± 0.046
FACS-Seq fitted mean (log10) [3]: -0.0985 ± 0.03
normalized RNA/DNA level with ligand (log10) [4]: 1.64 ± 0.077

GCUGUCACCGAGAAACUGUGAAGUAUAUCUUAAACCUGGGCACUUAAAAGAUAUAUGGAGUUAGUAGUGCAACCUGCUCGGUCUGAUGAGUCCCGCCUUGGACGAAACAGC
FACS-Seq fitted mean (log10) [1]: -0.439 ± 0.021
normalized RNA/DNA level without ligand (log10) [2]: 1.5321 ± 0.00037
FACS-Seq fitted mean (log10) [3]: -0.126 ± 0.059
normalized RNA/DNA level with ligand (log10) [4]: 1.72 ± 0.13

Source: the supplement of paper PMC6757056
